Reference: US20110262525A1, “METHODS OF TREATMENT” (SCHERING CORPORATION, priority 2006, published 2011)
Marks after values point to notes of the source that are not given here.

What was measured:
[1] = tested on: A498 human kidney carcinoma tumor cells; assay: A498 renal cell carcinoma xenograft in athymic nude mice; format: in vivo, mouse; details: 0.1 mg/injection ip two times per week, seven times starting on day 12
Method: Athymic nude mice were inoculated with A498 human kidney carcinoma tumor cells in the right flank, subcutaneously, along with Matrigel (1:1::cells:gel). In these experiments, 5×10^6 cells/mouse in a 1:1 mix with regular matrigel. The LCF/HCA anti-IGF1R antibody was inoculated intraperitoneally (ip) (0.1 mg/injection). Mice were dosed with antibody two times per week, by intraperitoneal injection, seven times starting on day 12. Tumor size was measured with calipers and the data was entered into the LABCAT data experimental collection and analysis program program (Innovative Programming Associates, Inc.; Princeton, N.J.). Mice were grouped with average size of 100 mm^3. Tumor size and body weight were measured twice weekly.

KT-11 xenograft (Wilms) = assay: PPTP in vivo xenograft KT-11; details: KT-11 (Wilms) xenograft, 0.5 mg per mouse ip twice weekly for four weeks
Method: (§1) The PPTP includes a molecularly characterized in vitro panel of cell lines (n=27) and in vivo panel of xenografts (n=61) representing most of the common types of childhood solid tumors and childhood ALL (acute lymphoblastic leukemia). LCF/HCA anti-IGF1R antibody was tested against the PPTP in vitro panel at concentrations ranging from 0.01 nM to 100 nM; and was tested against the PPTP in vivo panel at a dose of 0.5 mg per mouse administered twice weekly for four weeks via intraperitoneal injection. Three measures of antitumor activity were used: 1) response criteria modeled after the clinical setting; 2) treated-to-control (T/C) tumor volume at day 21; and 3) a time to event (4-fold increase in tumor volume) measure based on the median EFS of treated and control lines (intermediate activity required EFS (event-free survival) T/C>2, and high activity additionally required a net reduction in median tumor volume at the end of the experiment).
(§2) Stage 1 testing involved testing an agent across the entire PPTP panel of childhood cancer xenograft lines at its maximum tolerated dose (MTD) or at a dose selected based on PK/PD (pharmacokinetic/pharmacodynamic) studies using adult preclinical models.
(§3) In vivo solid tumor testing: For each xenograft line, 10 mice bearing subcutaneous (SC) tumors initiated treatment when the tumors were between 0.2-0.5 cm^3 in volume. Two perpendicular tumor diameters were measured at once weekly intervals with digital vernier calipers. Assuming tumors to be spherical, volumes were calculated from the formula (π/6)×d3, where d represented the mean diameter.
(§4) Drug: LCF/HCA was dissolved in 20mM sodium acetate pH 5 buffer containing 150 mM sodium chloride, and administered intraperitoneally twice weekly for 4 consecutive weeks at a dose of 0.5 mg per animal. […]
(§5) Median Group Response: Each individual mouse in each treatment group was assigned a response score (see Tables above) and a median score for the treatment group was calculated and then each treatment group was assigned an overall response according to the table below. […]

[2] = tested on: BT-50 xenograft (Medulloblastoma); assay: PPTP in vivo xenograft BT-50; details: BT-50 (Medulloblastoma) xenograft, 0.5 mg per mouse ip twice weekly for four weeks
Method: as §1, §2, §3, §4, §5

[3] = tested on: Rh41 xenograft (ALV Rhabdomyosarcoma); assay: PPTP in vivo xenograft Rh41
From the text: The PPTP includes a molecularly characterized in vitro panel of cell lines (n=27) and in vivo panel of xenografts (n=61) representing most of the common types of childhood solid tumors and childhood ALL (acute lymphoblastic leukemia).
as §2, §3
The antibody was provided to each testing site in coded vials for blinded testing according the PPTP's standard operating procedures.
(§6) Median Group Response: Each individual mouse in each treatment group was assigned a response score (see Tables above) and a median score for the treatment group was calculated and then each treatment group was assigned an overall response according to the table below.
(§7) Statistical Methods: Event-free survival (EFS) distributions of each treatment group were compared to the EFS distribution of the respective control group using the exact log rank test. P-values were 2-sided & were not adjusted for multiple comparisons given the exploratory nature of this study. P-values<0.05 were considered to be significant.

[4] = tested on: NB-EBc1 xenograft (Neuroblastoma); assay: PPTP in vivo xenograft NB-EBc1; design: key to EFS activity notation (high, intermediate, indeterminate): high (!); intermediate (#); indeterminate (^)
Method: as §1, §2, §3
(§8) Drug: LCF/HCA was dissolved in 20mM sodium acetate pH 5 buffer containing 150 mM sodium chloride, and administered intraperitoneally twice weekly for 4 consecutive weeks at a dose of 0.5 mg per animal. The antibody was provided to each testing site in coded vials for blinded testing according the PPTP's standard operating procedures.
as §6, §7

[5] = tested on: squamous cell carcinoma cell line SCC 9; assay: Cell-Titer Glo proliferation assay, SCC9; format: cell-based; details: 0.000256-100 nM antibody, 96 hours
Method: Cell proliferation was assayed using a Cell-Titer Glo assay (Promega Corp.; Madison, Wis.). A cell-titer glo assay generates a “glow” luminescent signal in the presence of ATP from viable cells, which can be detected with a plate reader luminometer or CCD imaging device.
In this assay, squamous cell carcinoma cells, SCC9, SCC25 and SCC15, were trypsinized, counted and resuspended at 25,000 cells/ml in 10% HI-FBS RPMI containing NEAA, L-Glu, MEM Vitamins and PS. […] (2500 cells) were added to each well BD Falcon 96 well black, clear bottom TC treated plate. Cells were allowed to attach and spread overnight at 37° C. Then, 10% RPMI medium was replaced with […] 2% RPMI, containing the LCF/HCA antibody at the appropriate concentration, the following day. The anti-IGF1R antibody concentrations used in each experiment were 100 nM, 20 nM, 5 nM, 0.8 nM, 0.16 nM, 0.032 nM, 0.0064 nM, 0.00128 nM, and 0.000256 nM. All treatments were prepared in 2% RPMI at 20× concentration and serial diluted. Every test point was prepared in triplicate on separate assay plates. As mentioned above, cell proliferation was measured using the CellTiter-Glo Luminescent Cell Viability Assay (Promega) at 96 hours post treatment. Luminescence was detected on a Wallac 420 Plate Reader with stacker.

[6] = tested on: OS-31 xenograft (Osteosarcoma); assay: PPTP in vivo xenograft OS-31; details: OS-31 (Osteosarcoma) xenograft, 0.5 mg per mouse ip twice weekly for four weeks
Method: as §1, §2, §3, §4, §5

[7] = tested on: BT-39 xenograft (Glioblastoma); assay: PPTP in vivo xenograft BT-39; details: BT-39 (Glioblastoma) xenograft, 0.5 mg per mouse ip twice weekly for four weeks
Method: as §1, §2, §3, §4, §5

[8] = tested on: D456 xenograft (Glioblastoma); assay: PPTP in vivo xenograft D456
Method: as §1, §2, §3, §4, §5

[9] = tested on: NB-SD xenograft (Neuroblastoma); assay: PPTP in vivo xenograft NB-SD; design: key to EFS activity notation (high, intermediate, indeterminate): high (!); intermediate (#); indeterminate (^)
Method: as §1, §2, §3, §8, §6, §7

[10] = 0.5 mg per mouse ip twice weekly for four weeks
[11] = day 21, 0.5 mg per mouse ip twice weekly for four weeks

B1: LCF/HCA: fully human anti-IGF1R antibody comprising the mature 19D12/15H12 light chain F (LCF) and mature heavy chain A (HCA) (antibody, V domains shown)
VH: EVQLVQSGGGLVHPGGSLRLSCAASGFTFSSFAMHWVRQAPGKGLEWISVIDTRGATYYADSVKGRFTISRDNAKNSLYLQMNSLRAEDMAVYYCARLGNFYYGMDVWGQGTTVTVSS
VL: EIVLTQVPDFQSVTPKEKVTITCRASQSIGSSLHWYQQKPDQSPKLLIKYASQSLSGVPSRFSGSGSGTDFTLTINSLEAEDAAAYYCHQSSRLPHTFGGGTKVEIKRT
In the case of B1, the “in vivo growth of renal cell carcinoma tumor” value [1] is reported as “in vivo growth inhibition”, the “EFS T/C” value (KT-11 xenograft (Wilms)) is reported as 1 and the “Median Final RTV” value (KT-11 xenograft (Wilms)) is reported as >4. The “Tumor Volume T/C” value (KT-11 xenograft (Wilms); day 21) was 0.99, the “Median Final RTV” value [2] was 1.4 and the “Overall Group Response” value [2] was “PD2 (1 < MS ≦ 3)”. For the same molecule, the “Tumor Volume T/C” value ([2]; day 21) was 0.94, the “EFS T/C” value [3, 10] was 1.1 and the “Median Final RTV” value [3, 10] was >4. The “Tumor Volume T/C” value [3, 11] was 0.65, the “EFS T/C” value [4, 10] was > 2.0 and the “EFS activity notation (high, intermediate, indeterminate)” value [4, 10] was “#”. The “Median Final RTV” value [4, 10] was 1.4#, the “Overall Group Response” value [4, 10] was “PD2 (1 < MS ≦ 3)” and the “Tumor Volume T/C” value [4, 11] was 0.8. The “proliferation of squamous cell carcinoma cell line” value [5] was “inhibited”, the “EFS T/C” value [6] was 1.3 and the “Median Final RTV” value [6] was >4. For the same molecule, the “Tumor Volume T/C” value ([6]; day 21) was 0.88, the “EFS T/C” value [7] was 1.1 and the “Median Final RTV” value [7] was >4. The “Tumor Volume T/C” value ([7]; day 21) was 0.87, the “EFS T/C” value [8, 10] was 1.1 and the “Median Final RTV” value [8, 10] was >4. The “Tumor Volume T/C” value [8, 11] was 0.77, the “EFS T/C” value [9, 10] was > 1.8 and the “EFS activity notation (high, intermediate, indeterminate)” value [9, 10] was “^”. For the same molecule, the “Median Final RTV” value [9, 10] was 3.7^, the “Overall Group Response” value [9, 10] was “PD2 (1 < MS ≦ 3)” and the “Tumor Volume T/C” value [9, 11] was 0.41.
